# In paper PMC13384491:
# How the values were obtained:
# [1] = target: Axonemes purified from sea urchin sperm, used as microtubule tracks (sea urchin); assay: optical trapping; fixed (stationary) trap, high z-force: biotinylated K560 directly on 860-nm streptavidin beads, single motors, surface-immobilized axonemes, 2 mM ATP, 30 mM HEPES, 5 mM MgSO4, 1 mM EGTA, 10% glycerol, pH 7.4 with casein
# [2] = target: Axonemes purified from sea urchin sperm, used as microtubule tracks (sea urchin); assay: optical trapping; fixed (stationary) trap, low z-force: oligo-labeled full-length KIF5B on 510-nm beads through a 2.8 kb DNA handle, single motors, surface-immobilized axonemes, 2 mM ATP, 30 mM HEPES, 5 mM MgSO4, 1 mM EGTA, 10% glycerol, pH 7.4 with casein
stall time before detachment (weighted average of the two decays) [1] [s],stall time before detachment (weighted average of the two decays) [2] [s],Substance
0.27,,"K560-GFP-SNAP, tail-truncated, constitutively active human kinesin-1 KIF5B (amino acids 1-560) (from UniProt P33176 1-560) (domain or fragment)"
,1.49,"KIF5B-GFP-SNAP, full-length human kinesin-1 KIF5B, oligo-labeled (from UniProt P33176 1-963) (natural protein)"
